From US20220048967A1 (published 2022)
Numbered stars: 1 amine (or outer) side, 2 acyl side, 3 side chain; on linkers, the order of the positions; unused ones are H or OH. Square brackets hold non-standard residues; d marks the D form. Side chains are listed from the residue outwards. Ends that are not written are not given here. * marks the point of attachment. C20 diacid = O=C(O)CCCCCCCCCCCCCCCCCCC(=O)*; αMePhe(2-F) = C[C@](N)(Cc1ccccc1F)C(=O)O; γGlu = O=C(O)[C@H](CCC(=O)[*:2])N[*:1]; αMeF = C[C@](N)(Cc1ccccc1)C(=O)O; AEEA = NCCOCCOCC(=O)O; Aib = CC(C)(N)C(=O)O

Tests used:
[1] = target: T1, human gastric inhibitory peptide receptor (GIPR) (human, UniProt P48546 22-466); experiment: cell-based or functional assay
T1 sequence (looked up): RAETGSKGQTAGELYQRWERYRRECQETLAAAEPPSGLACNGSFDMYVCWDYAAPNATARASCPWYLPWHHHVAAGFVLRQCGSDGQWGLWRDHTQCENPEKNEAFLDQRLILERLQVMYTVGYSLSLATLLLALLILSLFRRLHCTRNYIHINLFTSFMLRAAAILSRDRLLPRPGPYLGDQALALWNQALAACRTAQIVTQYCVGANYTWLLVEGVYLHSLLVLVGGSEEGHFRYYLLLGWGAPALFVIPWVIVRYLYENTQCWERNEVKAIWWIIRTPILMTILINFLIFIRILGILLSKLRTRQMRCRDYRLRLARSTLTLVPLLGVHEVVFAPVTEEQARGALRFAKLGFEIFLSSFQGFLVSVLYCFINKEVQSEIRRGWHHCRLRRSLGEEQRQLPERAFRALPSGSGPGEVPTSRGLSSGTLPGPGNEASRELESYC

[2] = target: human GLP-1 receptor (GLP-1R) (human, UniProt P43220 24-463); experiment: cell-based or functional assay

B1: Example 143 (peptide)
peptide: Y[Aib]EGT[αMeF]TSDYSIXLDKKAQ[Aib][Aib]FIEYLIEGGPSSGAPPPS-NH2
modifications: not fully specified (residues 13, 17); printed as Y-Aib-EGT-αMeF-TSDYSI-αMeF-LDKK((2-[2-(2-Amino-ethoxy)-ethoxy]-acetyl)2-(γ-Glu)-CO-(CH2)18-CO2H)AQ-Aib-Aib-FIEYLIEGGPSSGAPPPS-NH2
Q: With B1 as the binder, how does the “hGIPR cAMP EC50 ratio” value [1] read?
A: 2.78

Q: What about the “hGIPR cAMP Rel EC50” value [1] of the same binder?
A: 0.0515 nM

Q: What about the “hGLP1R cAMP EC50 ratio” value [2] of the same binder?
A: 0.714

Q: What about the “hGLP1R cAMP Rel EC50” value [2] of the same binder?
A: 0.0745 nM

B2: Example 149 (peptide)
peptide: Y[Aib]EGT[αMePhe(2-F)]TSDYSIXLDEKAQ[Aib]EFIVYLIEGGPSSGAPPPS-NH2
modifications: not fully specified (residues 13, 17); printed as Y-Aib-EGT-αMeF(2F)-TSDYSI-αMeF-LDEK((2-[2-(2-Amino-ethoxy)-ethoxy]-acetyl)2-(γ-Glu)-CO-(CH2)18-CO2H)AQ-Aib-EFIVYLIEGGPSSGAPPPS-NH2
Q: Which “hGIPR cAMP EC50 ratio” value [1] does the source give for B2 here?
A: 1.82

Q: What about the “hGIPR cAMP Rel EC50” value [1] of the same binder?
A: 0.0711 nM

Q: And the “hGLP1R cAMP EC50 ratio” value [2]?
A: 0.484

Q: And the “hGLP1R cAMP Rel EC50” value [2]?
A: 0.0916 nM

B3: Example 139 (peptide)
peptide: Y[Aib]EGT[αMeF]TSDYSIXLDKK([AEEA-AEEA-γGlu-C20 diacid])AQ[Aib]TFIEYLIEGGPSSGAPPPS-NH2
modifications: not fully specified (residue 13); printed as Y-Aib-EGT-αMeF-TSDYSI-αMeF-LDKK((2-[2-(2-Amino-ethoxy)-ethoxy]-acetyl)2-(γ-Glu)-CO-(CH2)18-CO2H)AQ-Aib-TFIEYLIEGGPSSGAPPPS-NH2
Q: Which results are given for B3?
A: hGIPR cAMP EC50 ratio [1]: 3.61; hGIPR cAMP Rel EC50 [1]: 0.037 nM; hGLP1R cAMP EC50 ratio [2]: 1.13; hGLP1R cAMP Rel EC50 [2]: 0.0417 nM

B4: Example 145 (peptide)
peptide: Y[Aib]EGT[αMeF]TSDASIXLDKKAQ[Aib]AFIEYLIEGGPSSGAPPPS-NH2
modifications: not fully specified (residues 13, 17); printed as Y-Aib-EGT-αMeF-TSDASI-αMeF-LDKK((2-[2-(2-Amino-ethoxy)-ethoxy]-acetyl)2-(γ-Glu)-CO-(CH2)18-CO2H)AQ-Aib-AFIEYLIEGGPSSGAPPPS-NH2
Q: With B4 as the binder, how does the “hGIPR cAMP EC50 ratio” value [1] read?
A: 2.46

Q: What about the “hGIPR cAMP Rel EC50” value [1] of the same binder?
A: 0.0514 nM

Q: What about the “hGLP1R cAMP EC50 ratio” value [2] of the same binder?
A: 1.22

Q: And the “hGLP1R cAMP Rel EC50” value [2]?
A: 0.0427 nM

B5: Example 140 (peptide)
peptide: Y[Aib]EGT[αMeF]TSDYSIXLDKKAQ[Aib]DFIEYLIEGGPSSGAPPPS-NH2
modifications: not fully specified (residues 13, 17); printed as Y-Aib-EGT-αMeF-TSDYSI-αMeF-LDKK((2-[2-(2-Amino-ethoxy)-ethoxy]-acetyl)2-(γ-Glu)-CO-(CH2)18-CO2H)AQ-Aib-DFIEYLIEGGPSSGAPPPS-NH2
Q: For B5, which “hGIPR cAMP EC50 ratio” value [1] is on record?
A: 3.76

Q: And the “hGIPR cAMP Rel EC50” value [1]?
A: 0.0349 nM

Q: And the “hGLP1R cAMP EC50 ratio” value [2]?
A: 1.16

Q: And the “hGLP1R cAMP Rel EC50” value [2]?
A: 0.0424 nM

B6: Example 141 (peptide)
peptide: Y[Aib]EGT[αMeF]TSDYSIXLDKKAQ[Aib]IFIEYLIEGGPSSGAPPPS-NH2
modifications: not fully specified (residues 13, 17); printed as Y-Aib-EGT-αMeF-TSDYSI-αMeF-LDKK((2-[2-(2-Amino-ethoxy)-ethoxy]-acetyl)2-(γ-Glu)-CO-(CH2)18-CO2H)AQ-Aib-IFIEYLIEGGPSSGAPPPS-NH2
Q: B6 was tested. Which “hGIPR cAMP EC50 ratio” value [1] did it give?
A: 0.538

Q: What about the “hGIPR cAMP Rel EC50” value [1] of the same binder?
A: 0.2 nM

Q: And the “hGLP1R cAMP EC50 ratio” value [2]?
A: 0.414

Q: What about the “hGLP1R cAMP Rel EC50” value [2] of the same binder?
A: 0.0975 nM

B7: Example 151 (peptide)
peptide: Y[Aib]EGT[αMePhe(2-F)]TSDYSIXLDEKAQ[Aib]EFIPYLIEGGPSSGAPPPS-NH2
modifications: not fully specified (residues 13, 17); printed as Y-Aib-EGT-αMeF(2F)-TSDYSI-αMeF-LDEK((2-[2-(2-Amino-ethoxy)-ethoxy]-acetyl)2-(γ-Glu)-CO-(CH2)18-CO2H)AQ-Aib-EFIPYLIEGGPSSGAPPPS-NH2
Q: What does the source list for B7?
A: hGIPR cAMP EC50 ratio [1]: 0.262; hGIPR cAMP Rel EC50 [1]: 0.41 nM; hGLP1R cAMP EC50 ratio [2]: 0.0278; hGLP1R cAMP Rel EC50 [2]: 1.6 nM

B8: Example 152 (peptide)
peptide: Y[Aib]EGT[αMePhe(2-F)]TSDYSIXLDEKAQ[Aib]EFI[Aib]YLIEGGPSSGAPPPS-NH2
modifications: not fully specified (residues 13, 17); printed as Y-Aib-EGT-αMeF(2F)-TSDYSI-αMeF-LDEK((2-[2-(2-Amino-ethoxy)-ethoxy]-acetyl)2-(γ-Glu)-CO-(CH2)18-CO2H)AQ-Aib-EFI-Aib-YLIEGGPSSGAPPPS-NH2
Q: Which “hGIPR cAMP EC50 ratio” value [1] does the source give for B8 here?
A: 2.57

Q: What about the “hGIPR cAMP Rel EC50” value [1] of the same binder?
A: 0.0504 nM

Q: What about the “hGLP1R cAMP EC50 ratio” value [2] of the same binder?
A: 0.484

Q: What about the “hGLP1R cAMP Rel EC50” value [2] of the same binder?
A: 0.0915 nM

B9: Example 150 (peptide)
peptide: Y[Aib]EGT[αMePhe(2-F)]TSDYSIXLDEKAQ[Aib]EFISYLIEGGPSSGAPPPS-NH2
modifications: not fully specified (residues 13, 17); printed as Y-Aib-EGT-αMeF(2F)-TSDYSI-αMeF-LDEK((2-[2-(2-Amino-ethoxy)-ethoxy]-acetyl)2-(γ-Glu)-CO-(CH2)18-CO2H)AQ-Aib-EFISYLIEGGPSSGAPPPS-NH2
Q: What does the source list for B9?
A: hGIPR cAMP EC50 ratio [1]: 2.64; hGIPR cAMP Rel EC50 [1]: 0.0511 nM; hGLP1R cAMP EC50 ratio [2]: 0.79; hGLP1R cAMP Rel EC50 [2]: 0.0575 nM

B10: Example 136 (peptide)
peptide: Y[Aib]EGTFTSDASILLDKK([AEEA-AEEA-γGlu-C20 diacid])AQ[Aib]AFIEYLIEAGPSSGAPPPS-NH2
modifications: N-terminus assumed
SMILES: CC[C@H](C)[C@H](NC(=O)[C@H](CC(C)C)NC(=O)[C@H](Cc1ccc(O)cc1)NC(=O)[C@H](CCC(=O)O)NC(=O)[C@@H](NC(=O)[C@H](Cc1ccccc1)NC(=O)[C@H](C)NC(=O)C(C)(C)NC(=O)[C@H](CCC(N)=O)NC(=O)[C@H](C)NC(=O)[C@H](CCCCNC(=O)COCCOCCNC(=O)COCCOCCNC(=O)CC[C@H](NC(=O)CCCCCCCCCCCCCCCCCCC(=O)O)C(=O)O)NC(=O)[C@H](CCCCN)NC(=O)[C@H](CC(=O)O)NC(=O)[C@H](CC(C)C)NC(=O)[C@H](CC(C)C)NC(=O)[C@@H](NC(=O)[C@H](CO)NC(=O)[C@H](C)NC(=O)[C@H](CC(=O)O)NC(=O)[C@H](CO)NC(=O)[C@@H](NC(=O)[C@H](Cc1ccccc1)NC(=O)[C@@H](NC(=O)CNC(=O)[C@H](CCC(=O)O)NC(=O)C(C)(C)NC(=O)[C@@H](N)Cc1ccc(O)cc1)[C@@H](C)O)[C@@H](C)O)[C@@H](C)CC)[C@@H](C)CC)C(=O)N[C@@H](CCC(=O)O)C(=O)N[C@@H](C)C(=O)NCC(=O)N1CCC[C@H]1C(=O)N[C@@H](CO)C(=O)N[C@@H](CO)C(=O)NCC(=O)N[C@@H](C)C(=O)N1CCC[C@H]1C(=O)N1CCC[C@H]1C(=O)N1CCC[C@H]1C(=O)N[C@@H](CO)C(N)=O
Q: Which results are given for B10?
A: hGIPR cAMP EC50 ratio [1]: 0.0544; hGIPR cAMP Rel EC50 [1]: 3.39 nM; hGLP1R cAMP EC50 ratio [2]: 1.1; hGLP1R cAMP Rel EC50 [2]: 0.06 nM

B11: Example 144 (peptide)
peptide: Y[Aib]EGT[αMeF]TSDYSIXLDKKAQH[Aib]FIEYLIEGGPSSGAPPPS-NH2
modifications: not fully specified (residues 13, 17); printed as Y-Aib-EGT-αMeF-TSDYSI-αMeF-LDKK((2-[2-(2-Amino-ethoxy)-ethoxy]-acetyl)2-(γ-Glu)-CO-(CH2)18-CO2H)AQH-Aib-FIEYLIEGGPSSGAPPPS-NH2
Q: Which results are given for B11?
A: hGIPR cAMP EC50 ratio [1]: 3.6; hGIPR cAMP Rel EC50 [1]: 0.0375 nM; hGLP1R cAMP EC50 ratio [2]: 0.851; hGLP1R cAMP Rel EC50 [2]: 0.0608 nM

B12: Example 142 (peptide)
peptide: Y[Aib]EGT[αMeF]TSDYSIXLDKKAQ[Aib]HFIEYLIEGGPSSGAPPPS-NH2
modifications: not fully specified (residues 13, 17); printed as Y-Aib-EGT-αMeF-TSDYSI-αMeF-LDKK((2-[2-(2-Amino-ethoxy)-ethoxy]-acetyl)2-(γ-Glu)-CO-(CH2)18-CO2H)AQ-Aib-HFIEYLIEGGPSSGAPPPS-NH2
Q: What does the source list for B12?
A: hGIPR cAMP EC50 ratio [1]: 2.84; hGIPR cAMP Rel EC50 [1]: 0.0489 nM; hGLP1R cAMP EC50 ratio [2]: 1.22; hGLP1R cAMP Rel EC50 [2]: 0.0426 nM

B13: Example 148 (peptide)
peptide: Y[Aib]EGT[αMePhe(2-F)]TSDYSIXLDEKAQ[Aib]EFIAYLIEGGPSSGAPPPS-NH2
modifications: not fully specified (residues 13, 17); printed as Y-Aib-EGT-αMeF(2F)-TSDYSI-αMeF-LDEK((2-[2-(2-Amino-ethoxy)-ethoxy]-acetyl)2-(γ-Glu)-CO-(CH2)18-CO2H)AQ-Aib-EFIAYLIEGGPSSGAPPPS-NH2
Q: Which results are given for B13?
A: hGIPR cAMP EC50 ratio [1]: 2.7; hGIPR cAMP Rel EC50 [1]: 0.043 nM; hGLP1R cAMP EC50 ratio [2]: 0.859; hGLP1R cAMP Rel EC50 [2]: 0.0626 nM

B14: Example 146 (peptide)
peptide: Y[Aib]EGT[αMePhe(2-F)]TSDYSIXLDEKAQ[Aib]EFIQYLIEGGPSSGAPPPS-NH2
modifications: not fully specified (residues 13, 17); printed as Y-Aib-EGT-αMeF(2F)-TSDYSI-αMeF-LDEK((2-[2-(2-Amino-ethoxy)-ethoxy]-acetyl)2-(γ-Glu)-CO-(CH2)18-CO2H)AQ-Aib-EFIQYLIEGGPSSGAPPPS-NH2
Q: For B14, which “hGIPR cAMP EC50 ratio” value [1] is on record?
A: 1.98

Q: What about the “hGIPR cAMP Rel EC50” value [1] of the same binder?
A: 0.0583 nM

Q: And the “hGLP1R cAMP EC50 ratio” value [2]?
A: 0.951

Q: And the “hGLP1R cAMP Rel EC50” value [2]?
A: 0.0604 nM
